B1: CPEB3 Ribozyme (parent)
chain: GGGGGCCACAGCAGAAGCGUUCACGUCGCGGCCCCUGUCAGAUUCUGGUGAAUCUGCGAAUUCUGCUGU

Variants of: B1
Assay: self-cleavage, relative activity (ratio to wild type); higher = more cleavage; co-transcriptional

Variant	self-cleavage
C12G C45U	0.868
C12G C45A	0.728
C12G C45G	0.819
C12U G14A	0.19
C12A U38G	0.235
C12U G56A	0.844
A13C G31U	0.508
A13C G31A	0.654
A13C A59C	0.395
A13C A59U	0.479
A13C A59G	0.794
C12U G58U	0.991
C12U G58A	1.01
A13C G37U	0.225
A13C G37A	0.14
C12U A51G	0.996
C12U A51U	0.991
A13C C32A	0.55
C12G G48U	0.925
C12G G48A	0.953
C12G U20A	0.228
C12G U20G	0.125
C12U U49C	0.971
C12U U49G	1

Variant	self-cleavage
A13C A23G	0.507
A13C A23U	0.788
A13C C35G	0.323
A13C C35U	0.751
A13C C33A	0.593
C12A U44C	0.343
C12A U44A	0.349
C12A U44G	0.55
C12A U67C	0.812
C12A U67A	0.671
C12A U67G	0.791
A13C G19U	0.138
C12G A60C	0.277
C12G A60G	0.451
C12G G65C	0.934
C12G G65U	0.952
C12G G65A	0.932
C12A U20A	0.0992
C12A U20G	0.18
C12A U20C	0.132
C12U A59G	0.968
C12U A59U	0.822
C12U A59C	0.623
C12G G17C	0.0979

Variant	self-cleavage
C12G G17A	0.148
C12A U55G	0.172
C12A U55A	0.23
C12G G37A	0.174
C12U C45A	0.97
A13C C24A	0.402
A13C C24U	0.543
C12U U44C	0.906
C12U G30A	0.864
C12U U26A	0.91
C12U U26C	0.996
C12U U26G	0.925
C12G G56C	0.345
C12A G56C	0.348
C12A G56U	0.296
C12A G56A	0.502
C12U G68U	0.995
C12U G68A	0.997
C12G C32G	0.334
C12G C32U	0.834
C12G C32A	0.224
C12G C18U	0.178
C12G C18A	0.185
C12G C18G	0.0782

Variant	self-cleavage
A13C C22U	0.209
A13C C66A	0.48
A13C C66G	0.862
A13C C66U	0.465
C12G U21G	0.364
C12G U21A	0.845
C12G G58A	0.852
C12G G58U	0.945
A13C C39U	0.555
C12G U55G	0.284
C12G U55A	0.403
C12G U55C	0.558
C12U G19C	0.154
C12U G19A	0.12
C12G U49G	0.857
C12G A16G	0.578
C12U A13C	0.629
C12U A13U	0.583
C12U A13G	0.793
A13C A15G	0.662
C12U G41U	0.718
C12U U20A	0.146
C12U U20C	0.165
C12G U61G	0.592

Variant	self-cleavage
C12G U61A	0.537
A13C C27U	0.15
A13C C27A	0.145
C12G U67G	0.797
C12G U67A	0.8
C12G C27A	0.216
C12G C27U	0.0756
C12U C34U	0.959
C12U C34A	0.778
C12U C34G	0.734
C12A U53A	0.354
C12A U53G	0.335
A13C A60C	0.301
A13C A60G	0.384
C12U C27U	0.297
C12U C27A	0.419
C12G U69A	0.881
C12G U69G	1.04
A13C C63G	0.366
A13C C63A	0.467
A13C C63U	0.732
C12U U55G	0.616
C12U U55C	0.83
C12U G25U	0.134

Variant	self-cleavage
C12U G25A	0.184
C12U G25C	0.121
A13C C45G	0.835
A13C C45A	0.761
A13C G41C	0.214
A13C G41U	0.349
C12G G28C	0.157
C12G G28A	0.163
C12U U53G	0.771
C12U U53A	0.909
A13C A51G	0.903
A13C A52U	0.837
A13C A52C	0.77
C12A U46G	0.628
C12A U46C	0.609
C12G C35U	0.83
A13C G47U	0.959
A13C G47C	0.928
C12U C33U	0.972
C12U U61A	0.822
C12U C63G	0.443
C12A G65U	0.932
C12A G65A	0.887
C12U A15G	0.999

Variant	self-cleavage
C12U A15U	0.502
C12A U61C	0.246
C12A U61A	0.312
C12A U61G	0.316
C12U U21A	0.947
C12U U21G	0.537
C12G U53A	0.634
C12G U53G	0.654
C12G U53C	0.408
C12A G68A	0.843
C12A G68U	0.807
C12A G68C	0.842
C12U U38G	0.277
C12U U38C	0.921
C12A G50U	0.738
C12U C57G	0.31
C12U C57A	0.438
C12U G65U	0.948
C12U G65C	0.864
C12U G65A	1
A13C G14U	0.22
A13C G14C	0.228
A13C G14A	0.251
